Drawing on paper PMC9377746 (Molecular Cancer Therapeutics, 2022), this text covers Kd and EC50 for three molecules.

One test concerns the target human FcγRIIb (human) (UniProt P31994). Put plainly: SPR.
A further test addresses purified human Clever-1 (Homo sapiens, UniProt Q9NY15). The test can be described thus: SPR.
In test [1] the target is purified cynomolgus Clever-1 (Macaca fascicularis, UniProt A0A2K5VS84). Put plainly: SPR. (In general: In SPR one partner is held on a chip, and binding of the other changes the refractive index at the surface.)
Test [2] concerns the target human Clever-1 on cells and in tissue (Homo sapiens, UniProt Q9NY15). Put plainly: flow cytometry on cells. (In flow cytometry, cells or beads pass a laser one at a time.)

Chain of human FcγRIIb (human) (P31994 43-310): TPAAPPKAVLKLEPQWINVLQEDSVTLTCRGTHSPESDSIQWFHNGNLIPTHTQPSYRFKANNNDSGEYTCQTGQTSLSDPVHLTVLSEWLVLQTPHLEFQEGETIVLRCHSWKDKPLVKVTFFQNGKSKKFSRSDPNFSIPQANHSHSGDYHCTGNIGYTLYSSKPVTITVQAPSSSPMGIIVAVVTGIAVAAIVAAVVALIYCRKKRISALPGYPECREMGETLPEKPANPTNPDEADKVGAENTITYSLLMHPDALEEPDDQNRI
Chain of purified human Clever-1 (Q9NY15 26-2570): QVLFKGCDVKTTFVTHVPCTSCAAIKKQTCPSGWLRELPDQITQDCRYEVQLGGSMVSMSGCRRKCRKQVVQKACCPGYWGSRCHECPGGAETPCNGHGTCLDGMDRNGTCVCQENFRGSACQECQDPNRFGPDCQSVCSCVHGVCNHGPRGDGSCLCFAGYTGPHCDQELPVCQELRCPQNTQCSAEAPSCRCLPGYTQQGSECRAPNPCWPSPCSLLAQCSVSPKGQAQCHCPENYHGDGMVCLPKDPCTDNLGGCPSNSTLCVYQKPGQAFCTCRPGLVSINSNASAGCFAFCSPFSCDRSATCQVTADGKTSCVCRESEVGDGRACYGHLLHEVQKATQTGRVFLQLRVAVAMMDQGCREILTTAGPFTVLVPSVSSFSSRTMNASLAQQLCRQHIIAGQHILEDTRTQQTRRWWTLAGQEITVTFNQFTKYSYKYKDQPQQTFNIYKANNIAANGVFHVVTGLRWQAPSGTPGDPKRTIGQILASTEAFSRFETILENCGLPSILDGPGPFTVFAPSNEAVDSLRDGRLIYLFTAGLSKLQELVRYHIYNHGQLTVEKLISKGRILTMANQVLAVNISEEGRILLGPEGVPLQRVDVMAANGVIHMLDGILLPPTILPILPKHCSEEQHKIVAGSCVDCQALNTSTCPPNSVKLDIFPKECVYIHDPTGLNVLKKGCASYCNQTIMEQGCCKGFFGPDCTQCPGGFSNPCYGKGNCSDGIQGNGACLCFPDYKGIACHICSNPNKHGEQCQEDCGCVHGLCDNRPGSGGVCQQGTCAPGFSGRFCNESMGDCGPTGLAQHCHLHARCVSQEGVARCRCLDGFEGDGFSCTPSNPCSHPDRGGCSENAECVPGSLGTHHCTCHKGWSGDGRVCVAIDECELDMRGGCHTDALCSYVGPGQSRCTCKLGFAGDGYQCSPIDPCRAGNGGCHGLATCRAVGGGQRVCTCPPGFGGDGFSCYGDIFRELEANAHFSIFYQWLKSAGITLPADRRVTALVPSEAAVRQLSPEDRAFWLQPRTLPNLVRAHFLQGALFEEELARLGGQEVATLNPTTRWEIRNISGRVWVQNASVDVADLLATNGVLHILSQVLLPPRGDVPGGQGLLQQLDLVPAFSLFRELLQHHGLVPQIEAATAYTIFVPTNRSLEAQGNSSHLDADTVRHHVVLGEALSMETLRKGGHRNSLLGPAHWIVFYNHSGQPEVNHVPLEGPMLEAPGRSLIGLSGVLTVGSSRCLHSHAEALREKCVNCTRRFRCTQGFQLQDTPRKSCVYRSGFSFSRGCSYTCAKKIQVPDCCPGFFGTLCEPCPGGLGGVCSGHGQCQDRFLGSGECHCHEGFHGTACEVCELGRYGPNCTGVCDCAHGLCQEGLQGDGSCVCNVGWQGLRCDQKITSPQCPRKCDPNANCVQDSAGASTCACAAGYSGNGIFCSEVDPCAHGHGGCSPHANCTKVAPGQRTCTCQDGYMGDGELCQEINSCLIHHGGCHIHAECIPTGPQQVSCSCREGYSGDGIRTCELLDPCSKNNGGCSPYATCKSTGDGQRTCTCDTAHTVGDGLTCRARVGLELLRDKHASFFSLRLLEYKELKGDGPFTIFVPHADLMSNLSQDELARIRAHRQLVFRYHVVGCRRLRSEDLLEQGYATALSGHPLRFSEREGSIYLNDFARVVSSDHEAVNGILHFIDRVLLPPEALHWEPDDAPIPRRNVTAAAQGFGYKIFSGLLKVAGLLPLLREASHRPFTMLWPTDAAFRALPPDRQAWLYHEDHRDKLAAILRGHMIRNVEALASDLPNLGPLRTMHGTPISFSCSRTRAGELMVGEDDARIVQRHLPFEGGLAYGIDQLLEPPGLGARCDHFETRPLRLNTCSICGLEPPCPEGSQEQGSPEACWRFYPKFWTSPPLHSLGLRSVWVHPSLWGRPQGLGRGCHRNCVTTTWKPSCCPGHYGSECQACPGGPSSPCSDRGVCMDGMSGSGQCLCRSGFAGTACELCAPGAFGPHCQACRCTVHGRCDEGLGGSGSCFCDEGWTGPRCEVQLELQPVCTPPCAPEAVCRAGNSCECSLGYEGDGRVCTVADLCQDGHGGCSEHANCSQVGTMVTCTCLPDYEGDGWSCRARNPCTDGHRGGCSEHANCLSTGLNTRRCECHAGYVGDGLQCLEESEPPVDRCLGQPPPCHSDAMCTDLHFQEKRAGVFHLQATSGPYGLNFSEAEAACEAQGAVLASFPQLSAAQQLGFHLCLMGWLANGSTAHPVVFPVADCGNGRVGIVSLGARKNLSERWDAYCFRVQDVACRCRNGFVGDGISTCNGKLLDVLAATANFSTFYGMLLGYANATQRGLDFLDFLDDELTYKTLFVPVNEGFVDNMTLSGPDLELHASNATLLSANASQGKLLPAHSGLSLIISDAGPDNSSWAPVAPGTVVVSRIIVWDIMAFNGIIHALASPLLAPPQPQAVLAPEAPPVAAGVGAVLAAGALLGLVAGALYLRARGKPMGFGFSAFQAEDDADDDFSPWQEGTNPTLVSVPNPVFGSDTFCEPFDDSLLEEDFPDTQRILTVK
Chain of human Clever-1 on cells and in tissue (Q9NY15 26-2570): as above

For bexmarilimab (antibody), in the test with human FcγRIIb (human), the Kd (as a rule, the concentration at which binding is half-saturated) was found to be 11400 nM.
rituximab (antibody) yielded a Kd with human FcγRIIb (human) of 5130 nM.

B1: bexmarilimab (antibody, V domains shown)
VH: QVTLKESGPTLVKPTQTLTLTCSFSGFSLSTSGMGIGWIRQPPGKALEWLAHIWWDDDKRYNPALKSRLTISKDTSKNQVVLTMTNMDPVDTATYYCARHYGYDPYYAMDYWGQGTLVTVSS
VL: EIVLTQSPGTLSLSPGERATLSCTASSSVSSSYLHWYQQKPGKAPKLLIYRTSNLASGVPSRFSGSGSGTDYTLTISSLQPEDFATYYCHQYHRSPPTFGQGTKLEIK
B1: the results for the Kd (with purified human Clever-1; in test [1]) were 0.75 nM and 0.92 nM, respectively. Further, it took 2.2 nM to reach a half-maximal effect in test [2] (EC50).
